US7005415B1

Target: FGF-1a produced in E. coli (human) (UniProt P05230)
Settings: scale: % band intensity remaining after 0.01% trypsin

With trypsin (enzyme) the intensity of the remaining band after trypsin treatment (SDS-denatured electrophoresis, blot) was 6.
